Data from the PETadex activity labels (doi:10.1007/s12010-013-0219-x).

Legend:
pNPB [1] = test: Proxy for plastic degradation [Relative activity]
pNPB [2] = test: Proxy for plastic degradation [kcat/Km (catalytic efficiency)] (µM⁻¹s⁻¹); conditions: pH 8
pNPB [3] = test: Proxy for plastic degradation [p-nitrophenol (pNP) release] (% relative activity); conditions: pH 8

B1: unnamed (protein)
chain: MPPHAARPGPAQNRRGRAMAVITPRRERSSLLSRALRFTAAAATALVTAVSLAAPAHAANPYERGPNPTDALLEARSGPFSVSEERASRFGADGFGGGTIYYPRENNTYGAVAISPGYTGTQASVAWLGERIASHGFVVITIDTNTTLDQPDSRARQLNAALDYMINDASSAVRSRIDSSRLAVMGHSMGGGGTLRLASQRPDLKAAIPLTPWHLNKNWSSVRVPTLIIGADLDTIAPVLTHARPFYNSLPTSISKAYLELDGATHFAPNIPNKIIGKYSVAWLKRFVDNDTRYTQFLCPGPRDGLFGEVEEYRSTCPF
Proxy for plastic degradation (pNPB [1]; pH 5): 35% | Proxy for plastic degradation (pNPB [1]; pH 6): 60% | Proxy for plastic degradation (pNPB [1]; pH 6.8): 75% | Proxy for plastic degradation (pNPB [1]; pH 7.5): 90% | Proxy for plastic degradation (pNPB [1]; pH 9): 75% | Proxy for plastic degradation (pNPB [2]): 1.35 | Proxy for plastic degradation (pNPB [3]; 0 h): 100 | Proxy for plastic degradation (pNPB [3]; 25 °C): 31 | Proxy for plastic degradation (pNPB [3]; 30 °C): 37.5 | Proxy for plastic degradation (pNPB [3]; 37 °C): 45 | Proxy for plastic degradation (pNPB [3]; 40 °C): 70.5 | Proxy for plastic degradation (pNPB [3]; 45 °C): 75 | Proxy for plastic degradation (pNPB [3]; 50 °C): 95.5 | Proxy for plastic degradation (pNPB [3]; 55 °C): 100 | Proxy for plastic degradation (pNPB [3]; 60 °C): 93.5 | Proxy for plastic degradation (pNPB [3]; 70 °C): 74 | Proxy for plastic degradation (pNPB [3]; 80 °C): 67.5 | Proxy for plastic degradation (pNPB [3]; 15 h): 98 | Proxy for plastic degradation (pNPB [3]; 30 h): 50 | Proxy for plastic degradation (pNPB [3]; 40 h): 40

B2: unnamed (protein)
chain: MAVMTPRRERSSLLSRALQVTAAAATALVTAVSLAAPAHAANPYERGPNPTDALLEASSGPFSVSEENVSRLSASGFGGGTIYYPRENNTYGAVAISPGYTGTEASIAWLGERIASHGFVVITIDTITTLDQPDSRAEQLNAALNHMINRASSTVRSRIDSSRLAVMGHSMGGGGTLRLASQRPDLKAAIPLTPWHLNKNWSSVTVPTLIIGADLDTIAPVATHAKPFYNSLPSSISKAYLELDGATHFAPNIPNKIIGKYSVAWLKRFVDNDTRYTQFLCPGPRDGLFGEVEEYRSTCPF
Proxy for plastic degradation (pNPB [1]; pH 5): 30% | Proxy for plastic degradation (pNPB [1]; pH 6): 59% | Proxy for plastic degradation (pNPB [1]; pH 6.8): 75% | Proxy for plastic degradation (pNPB [1]; pH 7.5): 92% | Proxy for plastic degradation (pNPB [1]; pH 8): 100% | Proxy for plastic degradation (pNPB [1]; pH 8, 25 °C): 29% | Proxy for plastic degradation (pNPB [1]; pH 8, 30 °C): 35% | Proxy for plastic degradation (pNPB [1]; pH 8, 37 °C): 50% | Proxy for plastic degradation (pNPB [1]; pH 8, 40 °C): 69% | Proxy for plastic degradation (pNPB [1]; pH 8, 45 °C): 80% | Proxy for plastic degradation (pNPB [1]; pH 8, 50 °C): 93% | Proxy for plastic degradation (pNPB [1]; pH 8, 55 °C): 100% | Proxy for plastic degradation (pNPB [1]; pH 8, 60 °C): 92% | Proxy for plastic degradation (pNPB [1]; pH 8, 70 °C): 78% | Proxy for plastic degradation (pNPB [1]; pH 8, 80 °C): 65% | Proxy for plastic degradation (pNPB [1]; pH 9): 75% | Proxy for plastic degradation (pNPB [2]): 2.84 | Proxy for plastic degradation (pNPB [3]; 25 °C): 29 | Proxy for plastic degradation (pNPB [3]; 30 °C): 35.5 | Proxy for plastic degradation (pNPB [3]; 37 °C): 51 | Proxy for plastic degradation (pNPB [3]; 40 °C): 68.5 | Proxy for plastic degradation (pNPB [3]; 45 °C): 80.5 | Proxy for plastic degradation (pNPB [3]; 50 °C): 93.5 | Proxy for plastic degradation (pNPB [3]; 55 °C): 100 | Proxy for plastic degradation (pNPB [3]; 60 °C): 91.5 | Proxy for plastic degradation (pNPB [3]; 70 °C): 79 | Proxy for plastic degradation (pNPB [3]; 80 °C): 67 | Proxy for plastic degradation (pNPB [3]; 15 h): 93 | Proxy for plastic degradation (pNPB [3]; 30 h): 47 | Proxy for plastic degradation (pNPB [3]; 40 h): 38
